From patent US20190100587A1 (COVAGEN, published 2019)
Where a chain is given by its changes, count along the chain named. In names and notes the source's numbering stands. Where two headings read alike, the source gives them in different places.

B1: mAb1 DANAPA IgG1 (antibody)
heavy: QVQLQQSGAELARPGASVKMSCKASGYTFTRSTMHWVKQRPGQGLEWIGYINPSSAYTNYNQKFKDKATLTADKSSSTAYMQLSSLTSEDSAVYYCASPQVHYDYNGFPYWGQGTLVTVSAASTKGPSVFPLAPSSKSTSGGTAALGCLVKDYFPEPVTVSWNSGALTSGVHTFPAVLQSSGLYSLSSVVTVPSSSLGTQTYICNVNHKPSNTKVDKKVEPKSCDKTHTCPPCPAPELLGGPSVFLFPPKPKDTLMISRTPEVTCVVVAVSHEDPEVKFNWYVDGVEVHNAKTKPREEQYASTYRVVSVLTVLHQDWLNGKEYKCKVSNKALAAPIEKTISKAKGQPREPQVYTLPPSREEMTKNQVSLTCLVKGFYPSDIAVEWESNGQPENNYKTTPPVLDSDGSFFLYSKLTVDKSRWQQGNVFSCSVMHEALHNHYTQKSLSLSPGK
light: QVVLTQSPAIMSAFPGEKVTMTCSASSSVSYMNWYQQKSGTSPKRWIYDSSKLASGVPARFSGSGSGTSYSLTISSMETEDAATYYCQQWSRNPPTFGGGTKLQITRTVAAPSVFIFPPSDEQLKSGTASVVCLLNNFYPREAKVQWKVDNALQSGNSQESVTEQDSKDSTYSLSSTLTLSKADYEKHKVYACEVTHQGLSSPVTKSFNRGEC
notes: mAb1 with Fc mutations D265A, N297A, P329A (EU numbering); also called DANAPA Fc mutated mAb1
B2: mAb1 DAPA IgG1 (antibody)
heavy: not shown
light: B1 light
B3: mAb1 DENQPS IgG1 (antibody)
heavy: B1 heavy with A269E, A301Q, A333S
light: B1 light
notes: mAb1 with D265E, N297Q, P329S (EU numbering)
B4: mAb1 DNNDPG IgG1 (antibody)
heavy: B1 heavy with A269N, A301D, A333G
light: B1 light
notes: mAb1 with D265N, N297D, P329G (EU numbering)
B5: mAb1 LALA IgG1 (antibody)
heavy: not shown
light: B1 light
notes: mAb1 with Fc mutations L234A, L235A (EU numbering)
B6: mAb1 N297A IgG1 (antibody)
heavy: not shown
light: B1 light
notes: mAb1 with Fc mutation N297A (EU numbering)
B7: mAb2 G1 C-LC DANAPA IgG1 (bispecific antibody)
heavy: EVQLVESGGGLVQPGGSLKLSCAASGFTFNTYAMNWVRQAPGKGLEWVARIRSKYNNYATYYADSVKDRFTISRDDSKNTAYLQMNSLKTEDTAVYYCVRHGNFGDSYVSWFAYWGQGTLVTVSSASTKGPSVFPLAPSSKSTSGGTAALGCLVKDYFPEPVTVSWNSGALTSGVHTFPAVLQSSGLYSLSSVVTVPSSSLGTQTYICNVNHKPSNTKVDKKVEPKSCDKTHTCPPCPAPELLGGPSVFLFPPKPKDTLMISRTPEVTCVVVAVSHEDPEVKFNWYVDGVEVHNAKTKPREEQYASTYRVVSVLTVLHQDWLNGKEYKCKVSNKALAAPIEKTISKAKGQPREPQVYTLPPSREEMTKNQVSLTCLVKGFYPSDIAVEWESNGQPENNYKTTPPVLDSDGSFFLYSKLTVDKSRWQQGNVFSCSVMHEALHNHYTQKSLSLSPGK
light: not shown
notes: also called CD3/CD33 bispecific FynomAb with Fynomer G1; FynomAb with the DANAPA IgG Fc
B8: mAb2 D5 C-LC DANAPA IgG1 (bispecific antibody)
heavy: B7 heavy
light: not shown
notes: also called CD3/CD33 bispecific FynomAb with Fynomer D5; FynomAb with the DANAPA IgG Fc
B9: mAb2 DANAPA IgG1 (antibody)
heavy: B7 heavy
light: QTVVTQEPSLTVSPGGTVTLTCRSSTGAVTTSNYANWVQQKPGQAPRGLIGGTNKRAPGTPARFSGSLLGGKAALTLSGVQPEDEAEYYCALWYSNLWVFGGGTKLTVLGQPKAAPSVTLFPPSSEELQANKATLVCLISDFYPGAVTVAWKADSSPVKAGVETTTPSKQSNNKYAASSYLSLTPEQWKSHRSYSCQVTHEGSTVEKTVAPTECS
notes: Humanized anti-CD3 antibody in DANAPA IgG1 format; also called anti-CD3 antibody mAb2; CD3-specific antibody mAb2
B10: Anti-PD1 mAb DANAPA IgG1 (antibody)
heavy: QVQLQQSGAELVKPGASVKMSCKAFGYTFTTYPIEWMKQNHGKSLEWIGNFHPYNDDTKYNEKFKGKAKLTVEKSSTTVYLELSRLTSDDSAVYYCARENYGSHGGFVYWGQGTLVTVSAASTKGPSVFPLAPSSKSTSGGTAALGCLVKDYFPEPVTVSWNSGALTSGVHTFPAVLQSSGLYSLSSVVTVPSSSLGTQTYICNVNHKPSNTKVDKKVEPKSCDKTHTCPPCPAPELLGGPSVFLFPPKPKDTLMISRTPEVTCVVVAVSHEDPEVKFNWYVDGVEVHNAKTKPREEQYASTYRVVSVLTVLHQDWLNGKEYKCKVSNKALAAPIEKTISKAKGQPREPQVYTLPPSREEMTKNQVSLTCLVKGFYPSDIAVEWESNGQPENNYKTTPPVLDSDGSFFLYSKLTVDKSRWQQGNVFSCSVMHEALHNHYTQKSLSLSPGK
light: ENVLTQSPAIMSASPGEKVTMTCRASSSVISSYLHWYQQKSGASPKLWIYSTSNLASGVPDRFSGSGSGTSYSLTISSVEAEDAATYYCQQYNGYPLTFGAGTKLEIKRTVAAPSVFIFPPSDEQLKSGTASVVCLLNNFYPREAKVQWKVDNALQSGNSQESVTEQDSKDSTYSLSSTLTLSKADYEKHKVYACEVTHQGLSSPVTKSFNRGEC
notes: DANAPA IgG1 format; also called anti-PD1 antibody; PD-1 specific antibody

Legend:
[1] = biological target: T1, human recombinant FcγRIIIA (158F; R&D Systems) (human, UniProt P08637 17-208); assay: SPR (BIAcore), human FcγRIIIA (158F) amine-coupled on a CM5 chip, antibody injected
T1 construct: Amine-coupled to a BIAcore CM5 chip (1400 RU); also called CD16A

[2] = biological target: T2, human recombinant FcRn (Sino Biological) (human, UniProt P55899 24-297; P61769 21-119); assay: SPR (BIAcore), FcRn on chip, pH 6.0, steady-state model
T2 construct: Amine-coupled to a CM5 chip (600 RU); also called neonatal Fc receptor

[3] = biological target: Human C1q (EMD Millipore) (human, UniProt P02745 23-245; P02746 28-253; P02747 29-245); assay: SPR (BIAcore T100), antibody amine-coupled on a CM5 chip, human C1q injected
[4] = biological target: T3, His-tagged human FcγRI (R&D, carrier-free formulation) (human, UniProt P12314 16-288); assay: AlphaScreen competition on His-tagged FcγRI; competitor biotinylated B21M LALA IgG1
T3 construct: also called CD64; human FcγR1

[5] = biological target: T4, human CD3 on CD3+ Jurkat cells (human); assay: flow cytometry on CD3+ Jurkat cells, bound antibody detected with anti-human IgG-Alexa488
T4 construct: whole, on cells

[6] = biological target: T5, human recombinant FcγRI (Sino Biological) (human, UniProt P12314 16-288, limits assumed); assay: SPR (BIAcore), FcγRI on chip, steady-state model
T5 construct: Amine-coupled to a BIAcore CM5 chip (1500 RU); also called CD64

[7] = biological target: T5, human recombinant FcγRI (Sino …); assay: SPR (BIAcore), FcγRI on chip, 1:1 Langmuir model
[8] = biological target: T3, His-tagged human FcγRI (R&D, …); assay: AlphaScreen competition on His-tagged FcγRI
[9] = biological target: T5, human recombinant FcγRI (Sino …); assay: SPR (BIAcore), FcγRI on chip, kinetic (koff/kon)
[10] = biological target: T3, His-tagged human FcγRI (R&D, …); assay: AlphaScreen competition assay; titrated antibody competes with biotinylated B21M LALA IgG1 for His-tagged human FcγRI
[11] = biological target: T1, human recombinant FcγRIIIA (158F; R&D …); assay: SPR (BIAcore), FcγRIIIA 158F on chip, kinetic (koff/kon)
[12] = biological target: T1, human recombinant FcγRIIIA (158F; R&D …); assay: SPR (BIAcore), FcγRIIIA 158F on chip, 1:1 Langmuir model
[13] = biological target: T1, human recombinant FcγRIIIA (158F; R&D …); assay: SPR (BIAcore), FcγRIIIA 158F on chip, steady-state model
[14] = biological target: T6, His-tagged human FcγRIIB (R&D, carrier-free formulation) (human, UniProt P31994 46-217, limits assumed); assay: AlphaScreen competition assay; titrated antibody competes with biotinylated B21M IgG1 for His-tagged human FcγRIIB
T6 construct: also called CD32B
T6 sequence (looked up): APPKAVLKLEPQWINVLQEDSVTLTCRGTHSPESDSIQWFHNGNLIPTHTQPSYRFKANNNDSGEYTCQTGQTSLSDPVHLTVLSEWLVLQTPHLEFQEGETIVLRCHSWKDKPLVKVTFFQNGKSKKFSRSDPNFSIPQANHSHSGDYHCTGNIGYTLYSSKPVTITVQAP

[15] = biological target: T3, His-tagged human FcγRI (R&D, …); assay: AlphaScreen competition on His-tagged FcγRI; competitor biotinylated B21M LALA IgG1; remark: listed apart in the source
[16] = biological target: T3, His-tagged human FcγRI (R&D, …); assay: AlphaScreen competition assay; titrated antibody competes with biotinylated B21M LALA IgG1 for His-tagged human FcγRI; remark: listed apart in the source

| Binder | binding result [1] | IC50 [4] [nM] | IC50 relative to IgG1 [4] [fold] | EC50 (read off the curve) [5] [nM] | Kd [6] [nM] | fold stronger binding than mAb1 DANAPA IgG1 [8] [fold] | IC50 [15] [nM] | further results |
| --- | --- | --- | --- | --- | --- | --- | --- | --- |
| B1 | no binding (tested: 2000 nM) | > 1000 | > 400 | ~0.08 |  |  |  | Kd [2]: 500 nM; binding result [3]: no binding (tested: 200 nM C1q) |
| B2 | no binding (tested: 2000 nM) | 17.7 | 7.8 | ~0.1 | 1190 | > 37 |  | koff [7]: 0.0595 s⁻¹; kon [7]: 103000 M⁻¹ s⁻¹; Kd [9]: 575 nM |
| B3 |  |  |  |  |  |  |  | binding result [10]: binds |
| B4 |  |  |  |  |  |  |  | binding result [10]: binds |
| B5 |  | 27.1 | 11.9 | ~0.1 | 1550 | > 37 |  | Kd [11]: 7780 nM; koff [12]: 0.111 s⁻¹; kon [12]: 14200 M⁻¹ s⁻¹; Kd [13]: 13800 nM; binding result [14]: binds |
| B6 | no binding (tested: 2000 nM) | 23.9 | 10.5 | ~0.1 | 1510 | > 37 |  | koff [7]: 0.112 s⁻¹; kon [7]: 152000 M⁻¹ s⁻¹; Kd [9]: 737 nM |
| B7 |  |  |  |  |  |  | 206 |  |
| B8 |  |  |  |  |  |  | 800 | IC50 (read off the curve) [16]: ~200 nM |
| B9 |  |  |  |  |  |  | ≥ 600 |  |
| B10 |  |  |  |  |  |  | ≥ 600 |  |
